# Data from patent US20030175730, “Multivalent RNA aptamers and their expression in multicellular organisms” (published 2003).
# T1: HSF (heat shock factor) (UniProt P22813 P22813:1-691)
# T1 sequence: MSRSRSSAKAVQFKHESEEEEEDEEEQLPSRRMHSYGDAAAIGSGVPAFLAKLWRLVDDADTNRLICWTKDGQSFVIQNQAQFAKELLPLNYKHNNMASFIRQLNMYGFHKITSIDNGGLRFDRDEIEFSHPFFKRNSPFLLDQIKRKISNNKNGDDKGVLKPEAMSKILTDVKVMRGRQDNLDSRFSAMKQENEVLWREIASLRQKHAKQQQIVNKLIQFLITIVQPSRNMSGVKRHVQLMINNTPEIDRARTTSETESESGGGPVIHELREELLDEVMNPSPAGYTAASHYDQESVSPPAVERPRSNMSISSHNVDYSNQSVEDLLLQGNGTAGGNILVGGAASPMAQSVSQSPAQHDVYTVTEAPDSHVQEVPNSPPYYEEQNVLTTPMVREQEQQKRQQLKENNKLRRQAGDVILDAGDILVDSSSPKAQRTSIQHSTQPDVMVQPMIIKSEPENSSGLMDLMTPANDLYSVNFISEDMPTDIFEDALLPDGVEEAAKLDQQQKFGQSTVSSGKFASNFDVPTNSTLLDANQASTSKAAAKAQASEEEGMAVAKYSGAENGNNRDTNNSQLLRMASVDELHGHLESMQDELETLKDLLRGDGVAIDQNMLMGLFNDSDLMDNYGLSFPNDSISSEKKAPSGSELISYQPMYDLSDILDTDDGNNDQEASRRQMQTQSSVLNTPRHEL
# T2: RBP1 (SR protein) (UniProt Q02427 Q02427:1-144)
# T2 sequence: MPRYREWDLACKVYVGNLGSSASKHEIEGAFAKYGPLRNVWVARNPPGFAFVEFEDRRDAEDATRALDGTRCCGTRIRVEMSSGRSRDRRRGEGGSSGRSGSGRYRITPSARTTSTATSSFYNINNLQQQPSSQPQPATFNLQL
# Legend:
# B52 (SRp55) full length [1] = target: T3, B52 (SRp55) full length (Drosophila melanogaster, UniProt P26686 P26686:1-350); assay: EMSA; 1:1; 50 mM Tris pH 7.6, 200 mM KOAc, 5 mM MgCl2, excess tRNA, gel 4 C; settings: tags: baculovirus/Sf9 expressed, SR protein purification; label: 32P-UTP; hairpin
# T3 sequence (P26686 other isoform, or with tags, fused parts or gaps): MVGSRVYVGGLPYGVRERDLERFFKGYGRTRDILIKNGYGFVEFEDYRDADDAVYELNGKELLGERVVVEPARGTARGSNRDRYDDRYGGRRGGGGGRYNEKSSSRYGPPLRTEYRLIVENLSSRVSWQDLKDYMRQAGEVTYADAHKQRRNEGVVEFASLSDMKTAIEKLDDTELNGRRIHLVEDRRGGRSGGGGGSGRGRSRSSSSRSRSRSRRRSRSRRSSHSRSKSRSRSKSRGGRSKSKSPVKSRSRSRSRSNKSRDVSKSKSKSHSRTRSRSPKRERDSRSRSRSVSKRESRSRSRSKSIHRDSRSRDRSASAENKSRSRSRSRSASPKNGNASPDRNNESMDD
# Description: (§1) All binding assays were performed in 20 μl volume in 1× binding buffer described above. A typical binding assay using labeled RNA contains about 20 finole of ³²P-labeled RNA probe and differing amounts (1-10 pmole) of B52 protein. A typical binding assay using the truncated versions of B52 contains 1 μl of the ³⁵S-labeled translation reaction mixture with 2 pmoles of unlabeled RNA transcript (the final concentration of RNAs in this reaction was 100 nM and concentration of the labeled B52 proteins was much lower). The reactions were allowed to equilibrate for 15-20 minutes at ambient temperature before being subjected to filter binding, gel shift, or UV crosslinking.
# (§2) When individual RNA's transcribed from cloned sequences were tested by filter binding assay the BBS RNA's were all able to bind B52 to generate signals that were 20 times the background produced by RNA's from the unselected pools. […] After cloning the selected sequences, RNA transcripts without most of the 3′ constant region were made by cutting the template with the restriction endonuclease Scal. […] The band shift assay was first performed with these sequences. Two sequences randomly picked from the original unselected pool were used as controls. Increasing amounts of B52 were added to ³²P-labeled RNA probes, which contain the 5′ constant region, in the presence of a large excess of tRNA. […]
# B52 (SRp55) full length [2] = target: T3, B52 (SRp55) full length; assay: EMSA; binding not compromised; settings: tags: baculovirus/Sf9 expressed, SR protein purification; label: 32P-UTP; hairpin
# Description: as §1
# (§3) To determine the sequence/structure requirements for binding by B52, deletion and substitution mutations, and antisense constructs of BBS were designed in light of the shared sequence motif and predicted secondary structures (FIG. 4). These short RNA transcripts were produced by in vitro transcription of synthetic templates, and their affinity to B52 was assayed by band shift.
# B52 (SRp55) full length [3] = target: T3, B52 (SRp55) full length; assay: EMSA; consensus trapped in duplex loses binding; settings: tags: baculovirus/Sf9 expressed, SR protein purification; label: 32P-UTP; hairpin, BBS consensus paired with its antisense via UUCG tetraloop
# Description: as §1, §3
# B52 (SRp55) full length [4] = target: T3, B52 (SRp55) full length; assay: EMSA; pentavalent vs monovalent; single-unit ribozyme-cleaved transcript tested in FIG. 9A; settings: tags: baculovirus/Sf9 expressed, SR protein purification; multivalent, five BBS hairpins closed by S35 stem
# Description: (§4) Gel shifts were performed at 4° C. The binding reaction mixtures were set at 4° C. for 5-10 minutes before being loaded onto a 2.5% agarose gel in ¼ TBE buffer. The avidity of the pentavalent RNA aptamer to B52 was examined on longer agarose gels (25 cm) to improve the resolution of RNA bands. The affinity of the RNA for the in vitro translated polypeptides was estimated by comparing the intensity of the bands representing the complex on the agarose gel and that of the corresponding polypeptides run on SDS-PAGE. To crosslink proteins to RNA, the binding reaction mixtures were irradiated for 20 minutes from 5 cm directly above by inverting a short-wavelength UV trans-illuminator. The products of crosslinking were analyzed using standard SDS-PAGE.
# Fragment C, which contains no binding site, served as an internal loading control in a band shift assay to assess the avidity of the pentavalent construct. During the transcription reaction, the extent of self-cleavage reached about 90% (FIG. 9A, Lane 1). […] The multivalent RNA aptamers bound B52 10-fold more avidly than the individual monovalent RNA aptamers, as shown here compared to the strong-binding primary aptamer BBS #14 (Lanes 2-4 vs. Lanes 6-8, FIG. 9A). […]
# B52 RRM1+RRM2 (R12) = B52 RRM1+RRM2 (R12) (Drosophila melanogaster, UniProt P26686 P26686:4-188); assay: EMSA; affinity comparable to baculovirus B52; also UV-crosslinked; settings: tags: 35S-Met, reticulocyte lysate; hairpin
# Sequence of B52 RRM1+RRM2 (R12) (P26686 other isoform, or with tags, fused parts or gaps): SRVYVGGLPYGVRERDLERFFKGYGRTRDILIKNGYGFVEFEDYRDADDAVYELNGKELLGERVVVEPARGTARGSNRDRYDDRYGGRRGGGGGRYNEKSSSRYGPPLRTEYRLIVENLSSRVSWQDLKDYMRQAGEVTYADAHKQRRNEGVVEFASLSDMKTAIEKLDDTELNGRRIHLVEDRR
# Description: as §4
# (§5) BBS RNAs were selected for their ability to bind full length B52 protein. It is possible that B52 binds RNA through either one or the other RRMs, the SR domain, or a combination of these domains. To identify the specific RNA-binding site on B52, a set of ³⁵S-methionine labeled B52 deletion constructs were prepared by in vitro translation and then tested for their ability to bind the selected BBS #8 RNA in two different assays (FIG. 6A). […]
# (§6) To confirm the requirements of both RRMs for binding, these binding reactions were repeated and the reaction mixtures were subjected to UV irradiation. The UV-crosslinked species were then analyzed on SDS-PAGE. […]
# B52 full length (F) = B52 full length (F) (Drosophila melanogaster, UniProt P26686 P26686:1-350); assay: EMSA; 100 nM RNA; affinity comparable to baculovirus B52; settings: tags: 35S-Met, reticulocyte lysate; hairpin
# Description: as §1
# (§7) BBS RNAs were selected for their ability to bind full length B52 protein. It is possible that B52 binds RNA through either one or the other RRMs, the SR domain, or a combination of these domains. To identify the specific RNA-binding site on B52, a set of ³⁵S-methionine labeled B52 deletion constructs were prepared by in vitro translation and then tested for their ability to bind the selected BBS #8 RNA in two different assays (FIG. 6A). These polypeptides also serve as a second source of target proteins in binding assays to confirm the specificity of binding to the selected BBS RNA.
# B52 RRM2+SR domain (R2S) = B52 RRM2+SR domain (R2S) (Drosophila melanogaster, UniProt P26686 P26686:115-350); assay: EMSA; 100 nM RNA, no discrete band; settings: tags: 35S-Met, reticulocyte lysate; hairpin
# Sequence of B52 RRM2+SR domain (R2S) (P26686 other isoform, or with tags, fused parts or gaps): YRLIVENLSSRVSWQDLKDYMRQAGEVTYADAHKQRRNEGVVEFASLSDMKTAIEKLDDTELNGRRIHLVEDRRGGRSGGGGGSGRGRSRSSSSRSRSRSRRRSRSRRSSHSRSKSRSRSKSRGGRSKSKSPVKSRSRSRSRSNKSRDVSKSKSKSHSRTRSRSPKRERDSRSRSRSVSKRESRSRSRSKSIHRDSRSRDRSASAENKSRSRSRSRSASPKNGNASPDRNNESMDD
# Description: as §4, §7
# B52 SR domain (S) = B52 SR domain (S) (Drosophila melanogaster, UniProt P26686 P26686:189-350); assay: EMSA; 100 nM RNA, no discrete band; settings: tags: 35S-Met, reticulocyte lysate; hairpin
# Sequence of B52 SR domain (S) (P26686 other isoform, or with tags, fused parts or gaps): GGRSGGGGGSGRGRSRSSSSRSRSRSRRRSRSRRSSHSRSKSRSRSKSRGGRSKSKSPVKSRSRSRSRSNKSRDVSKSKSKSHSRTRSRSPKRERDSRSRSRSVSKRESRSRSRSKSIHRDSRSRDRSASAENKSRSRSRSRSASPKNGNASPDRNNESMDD
# Description: as §4, §7
# B52 RRM1 (R1) = B52 RRM1 (R1) (Drosophila melanogaster, UniProt P26686 P26686:4-74); assay: EMSA; no band; not UV-crosslinked; not complemented by R2S in trans; settings: tags: 35S-Met, reticulocyte lysate; hairpin
# Sequence of B52 RRM1 (R1) (P26686 4-74, one chain of several): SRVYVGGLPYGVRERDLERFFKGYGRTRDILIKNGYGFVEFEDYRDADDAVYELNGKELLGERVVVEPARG
# Description: as §4, §5, §6
# HSF (heat shock factor) = target: T1, HSF (heat shock factor); assay: no measurable affinity for BBS RNAs; individual BBS and method not specified; settings: hairpin
# RBP1 (SR protein) = target: T2, RBP1 (SR protein); assay: as above; settings: hairpin
# B52 (SRp55) full length [5] = target: T3, B52 (SRp55) full length; assay: EMSA; binds as well as BBS-I; settings: tags: baculovirus/Sf9 expressed, SR protein purification; label: 32P-UTP; hairpin with internal loop
# Description: as §1, §3
# B52 (SRp55) full length [6] = target: T3, B52 (SRp55) full length; assay: EMSA; strong binder; both conserved flanking Gs; settings: tags: baculovirus/Sf9 expressed, SR protein purification; label: 32P-UTP; hairpin
# Description: as §1, §3
# B52 (SRp55) full length [7] = target: T3, B52 (SRp55) full length; assay: EMSA; fully active; settings: tags: baculovirus/Sf9 expressed, SR protein purification; label: 32P-UTP; hairpin
# Description: as §1, §3
# B52 (SRp55) full length [8] = target: T3, B52 (SRp55) full length; assay: EMSA; antisense does not bind; settings: tags: baculovirus/Sf9 expressed, SR protein purification, label: 32P-UTP
# Description: as §1, §3
# B52 (SRp55) full length [9] = target: T3, B52 (SRp55) full length; assay: EMSA; full binding activity; settings: tags: baculovirus/Sf9 expressed, SR protein purification; label: 32P-UTP; hairpin with unfolded 3' tail
# Description: as §1, §3
# B52 (SRp55) full length [10] = target: T3, B52 (SRp55) full length; assay: filter; signal 20x background of unselected pool; settings: tags: baculovirus/Sf9 expressed, SR protein purification; hairpin
# Description: as §1, §2
binder,measurement,setting,value
BBS #14 ScaI-trimmed (ssRNA) RNA: GGGAGAAUUCAACUGCCAUCUAGGCAGGGUAACGAUCAACCUGGCGACAGCUGCCCUGCCGUCCAAGU,Kd,B52 (SRp55) full length [1],~50 nM
GGCGGUCAACCAGGCGACCGCC (ssRNA) [BBS-I/NoBulge],binding result,B52 (SRp55) full length [2],binds
GGUCGCCUGGUUGAUCUUCGGAUCAACCAGGCGACA (ssRNA) [UUCG/BBS],binding result,B52 (SRp55) full length [3],no binding
mature pentavalent BBS(5) aptamer (ssRNA) RNA: GCGGCCGCCUCCGCGGCCGCCUGAUGAGUCCGUGAGGACGAAACAUGCAUGUCGAGAGUACGAUCAACCAGGCGACAGUACUCUCGACGAUCAACCAGGCGACAGUGGCUGGUCAACCAGGCGACCGCCACUGCAGGGUAACGGUCAACCAGGCGACCGUUACCCGGACGGUCAACCAGGCGACCGUUGACUUCGGUCAGUCGAGAUGCAUGUC,binding signal,B52 (SRp55) full length [4],10 fold more avid than BBS #14
BBS #8 (ssRNA) RNA: GGGAGAAUUCAACUGCCAUCUAGGCUGGUCAACCAGGCGACCGCCACCCGCGCGCGCAAUACCUAGUACUACAAGCUUCUGGACUCGGU,binding result,B52 RRM1+RRM2 (R12),binds
same,binding result,B52 full length (F),binds
same,binding result,B52 RRM2+SR domain (R2S),no binding
same,binding result,B52 SR domain (S),no binding
same,binding result,B52 RRM1 (R1),no binding
same,binding result,HSF (heat shock factor),no binding
same,binding result,RBP1 (SR protein),no binding
GGGUACGAUCAACCAGGCGACAGUACCC (ssRNA) [BBS-II],binding result,B52 (SRp55) full length [5],binds
GGACGGUCAACCAGGCGACCGU (ssRNA) [bbs-II/3'Stem],binding result,B52 (SRp55) full length [6],binds
GGCUGGUCAACCAGGCGACCGCC (ssRNA) [BBS-I],binding signal,B52 (SRp55) full length [7],1 fold of BBS #8
GGACUGUCGCCUGGUUGAUCGU (ssRNA) [AntiBBS-II],binding result,B52 (SRp55) full length [8],no binding
BBS #8 ScaI-trimmed (ssRNA) RNA: GGGAGAAUUCAACUGCCAUCUAGGCUGGUCAACCAGGCGACCGCCACCCGCGCGCGCAAUACCUAGU,Kd,B52 (SRp55) full length [1],~20 nM
GGCUGGUCAACCAGGCGACCGCCACCCGCGCGC (ssRNA) [BBS-I/Long],binding signal,B52 (SRp55) full length [9],1 fold of BBS #8
GGCGGUCGCCUGGUUGACCAGCC (ssRNA) [AntiBBS-I],binding result,B52 (SRp55) full length [8]; hairpin,no binding
BBS #23 (ssRNA) RNA: GGGAGAAUUCAACUGCCAUCUAGGCCCAACUGCUAAGAAGCAUCCUGUACGAUCAACCCGGCGACAGUACUACAAGCUUCUGGACUCGGU,binding result,B52 (SRp55) full length [10],binds
